Source: PMC9482650, “Quantitative fragmentomics allow affinity mapping of interactomes” (Nature Communications, 2022)

T1: ARHGAP21, Q5T5U3
T1 sequence (Q5T5U3 45-169, limits assumed, looked up): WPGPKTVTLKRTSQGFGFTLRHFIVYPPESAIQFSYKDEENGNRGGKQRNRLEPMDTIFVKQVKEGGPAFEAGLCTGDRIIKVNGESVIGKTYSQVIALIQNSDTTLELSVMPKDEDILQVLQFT

T2: DFNB31_1, Q9P202
T2 sequence (Q9P202 135-233, limits assumed, looked up): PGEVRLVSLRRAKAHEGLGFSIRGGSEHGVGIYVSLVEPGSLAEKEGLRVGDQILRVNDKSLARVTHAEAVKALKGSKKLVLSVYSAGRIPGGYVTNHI

T3: DLG3_2, Q92796
T3 sequence (Q92796 221-321, limits assumed, looked up): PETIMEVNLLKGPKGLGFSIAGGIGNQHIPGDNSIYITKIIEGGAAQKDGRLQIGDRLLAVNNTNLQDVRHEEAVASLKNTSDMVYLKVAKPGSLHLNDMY

T4: DLG3_3, Q92796
T4 sequence (Q92796 374-475, limits assumed, looked up): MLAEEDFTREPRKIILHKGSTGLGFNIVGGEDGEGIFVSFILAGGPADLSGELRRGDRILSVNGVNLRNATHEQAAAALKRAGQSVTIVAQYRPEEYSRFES

T5: LRRC7, Q96NW7
T5 sequence (Q96NW7 1440-1537, limits assumed, looked up): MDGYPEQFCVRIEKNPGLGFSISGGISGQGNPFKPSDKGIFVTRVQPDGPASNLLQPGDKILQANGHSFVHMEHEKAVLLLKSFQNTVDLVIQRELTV

T6: MPP2, Q14168
T6 sequence (Q14168 180-250, limits assumed, looked up): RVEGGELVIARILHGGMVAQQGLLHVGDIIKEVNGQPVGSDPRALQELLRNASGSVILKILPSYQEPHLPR

T7: PTPN13_1, Q12923
T7 sequence (Q12923 1088-1188, limits assumed, looked up): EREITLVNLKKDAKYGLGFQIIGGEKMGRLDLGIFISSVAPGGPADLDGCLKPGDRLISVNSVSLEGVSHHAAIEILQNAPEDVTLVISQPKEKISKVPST

T8: SHANK1, Q9Y566
T8 sequence (Q9Y566 658-767, limits assumed, looked up): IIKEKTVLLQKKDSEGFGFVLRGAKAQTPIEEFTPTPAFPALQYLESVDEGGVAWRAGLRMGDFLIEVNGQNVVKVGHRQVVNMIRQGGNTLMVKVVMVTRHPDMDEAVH

T9: SIPA1L2, Q9P2F8
T9 sequence (Q9P2F8 945-1036, limits assumed, looked up): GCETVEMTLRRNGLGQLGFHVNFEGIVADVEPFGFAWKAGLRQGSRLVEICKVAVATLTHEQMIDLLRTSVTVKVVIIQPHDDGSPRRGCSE

T10: SNTG2, Q9NY99
T10 sequence (Q9NY99 68-166, limits assumed, looked up): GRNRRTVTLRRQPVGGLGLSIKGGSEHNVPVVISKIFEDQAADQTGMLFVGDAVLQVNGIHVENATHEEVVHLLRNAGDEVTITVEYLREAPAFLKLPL

T11: SYNJ2BP, P57105
T11 sequence (P57105 8-110, limits assumed, looked up): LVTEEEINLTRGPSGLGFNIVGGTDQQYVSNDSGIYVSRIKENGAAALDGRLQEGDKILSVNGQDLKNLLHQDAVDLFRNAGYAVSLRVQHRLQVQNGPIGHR

T12: TJP3_3, O95049
T12 sequence (O95049 375-456, limits assumed, looked up): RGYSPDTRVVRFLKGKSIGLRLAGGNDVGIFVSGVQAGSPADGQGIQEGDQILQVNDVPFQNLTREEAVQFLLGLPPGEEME


These binders were tested against AHNAK1, Q09666 (assay: holdup assay). Details: plain residues with an end cap or a label only (N-terminal biotin on a linker: ado-ado).
AHNAK1, Q09666, sequence (Q09666 4-100): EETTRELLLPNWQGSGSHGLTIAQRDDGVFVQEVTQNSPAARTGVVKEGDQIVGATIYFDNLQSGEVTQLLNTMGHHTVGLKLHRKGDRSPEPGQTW
Parameters: key: below the threshold = too weak to quantify, mostly under pKd 3.1 to 4
With EDLTKNHDEL [RCN1, Q15293] the pKd was “below the threshold”.

These binders were tested against T1, ARHGAP21, Q5T5U3 (assay: holdup assay). Details: plain residues with an end cap or a label only (N-terminal biotin on a linker: ado-ado).
Parameters: key: below the threshold = too weak to quantify, mostly under pKd 3.1 to 4
For EDLTKNHDEL [RCN1, Q15293], the pKd was 4.17.

Each binder was assayed against T2, DFNB31_1, Q9P202 (assay: holdup assay). Details: plain residues with an end cap or a label only (N-terminal biotin on a linker: ado-ado).
Parameters: key: below the threshold = too weak to quantify, mostly under pKd 3.1 to 4
EDLTKNHDEL [RCN1, Q15293] was tested, and the pKd was “below the threshold”.

These binders were tested against DLG2_2, Q15700 (assay: holdup assay). Details: plain residues with an end cap or a label only (N-terminal biotin on a linker: ado-ado).
DLG2_2, Q15700, sequence (Q15700 189-283): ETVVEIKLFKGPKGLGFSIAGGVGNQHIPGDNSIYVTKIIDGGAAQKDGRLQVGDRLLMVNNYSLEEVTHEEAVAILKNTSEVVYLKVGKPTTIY
Parameters: key: below the threshold = too weak to quantify, mostly under pKd 3.1 to 4
In the case of EDLTKNHDEL [RCN1, Q15293], the pKd is reported as “below the threshold”.

These binders were tested against T3, DLG3_2, Q92796 (assay: holdup assay). Details: plain residues with an end cap or a label only (N-terminal biotin on a linker: ado-ado).
Parameters: key: below the threshold = too weak to quantify, mostly under pKd 3.1 to 4
With EDLTKNHDEL [RCN1, Q15293] the pKd was “below the threshold”.

These binders were tested against T4, DLG3_3, Q92796 (assay: holdup assay). Details: plain residues with an end cap or a label only (N-terminal biotin on a linker: ado-ado).
Parameters: key: below the threshold = too weak to quantify, mostly under pKd 3.1 to 4
For EDLTKNHDEL [RCN1, Q15293], the pKd was “below the threshold”.

Each binder was assayed against DLG4_2, P78352 (assay: holdup assay). Details: plain residues with an end cap or a label only (N-terminal biotin on a linker: ado-ado).
DLG4_2, P78352, sequence (P78352 155-259): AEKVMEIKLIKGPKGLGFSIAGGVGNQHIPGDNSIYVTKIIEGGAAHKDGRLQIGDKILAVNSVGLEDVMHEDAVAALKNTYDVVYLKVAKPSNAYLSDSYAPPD
Parameters: key: below the threshold = too weak to quantify, mostly under pKd 3.1 to 4
EDLTKNHDEL [RCN1, Q15293] was tested, and the pKd was 3.62.

What follows are binders tested against FRMPD3, Q5JV73 (assay: holdup assay). Details: plain residues with an end cap or a label only (N-terminal biotin on a linker: ado-ado).
FRMPD3, Q5JV73, sequence (Q5JV73 12-100): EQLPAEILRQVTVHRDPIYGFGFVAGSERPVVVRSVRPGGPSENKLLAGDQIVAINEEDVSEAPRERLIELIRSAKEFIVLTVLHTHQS
Parameters: key: below the threshold = too weak to quantify, mostly under pKd 3.1 to 4
For EDLTKNHDEL [RCN1, Q15293], the pKd was “below the threshold”.

These binders were tested against GRASP, Q7Z6J2 (assay: holdup assay). Details: plain residues with an end cap or a label only (N-terminal biotin on a linker: ado-ado).
GRASP, Q7Z6J2, sequence (Q7Z6J2 96-193): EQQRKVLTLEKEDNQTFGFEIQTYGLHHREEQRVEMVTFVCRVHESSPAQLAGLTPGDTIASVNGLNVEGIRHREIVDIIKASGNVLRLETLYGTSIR
Parameters: key: below the threshold = too weak to quantify, mostly under pKd 3.1 to 4
For EDLTKNHDEL [RCN1, Q15293], the pKd was 3.86.

Each binder was assayed against Inadl_6, Q8NI35 (assay: holdup assay). Details: plain residues with an end cap or a label only (N-terminal biotin on a linker: ado-ado).
Inadl_6, Q8NI35, sequence (Q8NI35 1058-1167): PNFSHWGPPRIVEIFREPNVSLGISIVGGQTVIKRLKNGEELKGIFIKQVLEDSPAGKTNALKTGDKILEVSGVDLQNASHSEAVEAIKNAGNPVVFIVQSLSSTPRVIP
Parameters: key: below the threshold = too weak to quantify, mostly under pKd 3.1 to 4
In the case of EDLTKNHDEL [RCN1, Q15293], the pKd is reported as “below the threshold”.

These binders were tested against LNX1_2, Q8TBB1 (assay: holdup assay). Details: plain residues with an end cap or a label only (N-terminal biotin on a linker: ado-ado).
LNX1_2, Q8TBB1, sequence (Q8TBB1 371-470): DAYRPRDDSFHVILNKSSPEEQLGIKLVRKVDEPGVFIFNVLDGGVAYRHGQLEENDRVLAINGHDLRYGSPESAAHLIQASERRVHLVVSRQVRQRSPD
Parameters: key: below the threshold = too weak to quantify, mostly under pKd 3.1 to 4
With EDLTKNHDEL [RCN1, Q15293] the pKd was 3.47.

What follows are binders tested against T5, LRRC7, Q96NW7 (assay: holdup assay). Details: plain residues with an end cap or a label only (N-terminal biotin on a linker: ado-ado).
Parameters: key: below the threshold = too weak to quantify, mostly under pKd 3.1 to 4
With EDLTKNHDEL [RCN1, Q15293] the pKd was “below the threshold”.

The binders below were run against T6, MPP2, Q14168 (assay: holdup assay). Details: plain residues with an end cap or a label only (N-terminal biotin on a linker: ado-ado).
Parameters: key: below the threshold = too weak to quantify, mostly under pKd 3.1 to 4
In the case of EDLTKNHDEL [RCN1, Q15293], the pKd is reported as “below the threshold”.

The binders below were run against NHERF2_2, Q15599 (assay: holdup assay). Details: plain residues with an end cap or a label only (N-terminal biotin on a linker: ado-ado).
NHERF2_2, Q15599, sequence (Q15599 142-238): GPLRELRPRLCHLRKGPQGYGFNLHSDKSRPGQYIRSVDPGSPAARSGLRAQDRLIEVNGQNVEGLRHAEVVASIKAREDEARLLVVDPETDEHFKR
Parameters: key: below the threshold = too weak to quantify, mostly under pKd 3.1 to 4
EDLTKNHDEL [RCN1, Q15293] gave a pKd of 3.74.

These binders were tested against NHERF4_2, Q86UT5 (assay: holdup assay). Details: plain residues with an end cap or a label only (N-terminal biotin on a linker: ado-ado).
NHERF4_2, Q86UT5, sequence (Q86UT5 220-308): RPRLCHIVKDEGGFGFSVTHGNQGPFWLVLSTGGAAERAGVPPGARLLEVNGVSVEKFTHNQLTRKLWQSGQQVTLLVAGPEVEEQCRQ
Parameters: key: below the threshold = too weak to quantify, mostly under pKd 3.1 to 4
For EDLTKNHDEL [RCN1, Q15293], the pKd was “below the threshold”.

These binders were tested against PDZRN4_1, Q6ZMN7 (assay: holdup assay). Details: plain residues with an end cap or a label only (N-terminal biotin on a linker: ado-ado).
PDZRN4_1, Q6ZMN7, sequence (Q6ZMN7 213-318): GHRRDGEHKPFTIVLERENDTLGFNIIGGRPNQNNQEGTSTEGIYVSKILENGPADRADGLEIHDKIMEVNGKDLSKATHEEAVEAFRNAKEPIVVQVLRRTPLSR
Parameters: key: below the threshold = too weak to quantify, mostly under pKd 3.1 to 4
With EDLTKNHDEL [RCN1, Q15293] the pKd was 3.73.

What follows are binders tested against T7, PTPN13_1, Q12923 (assay: holdup assay). Details: plain residues with an end cap or a label only (N-terminal biotin on a linker: ado-ado).
Parameters: key: below the threshold = too weak to quantify, mostly under pKd 3.1 to 4
With EDLTKNHDEL [RCN1, Q15293] the pKd was “below the threshold”.

These binders were tested against PTPN3, P26045 (assay: holdup assay). Details: plain residues with an end cap or a label only (N-terminal biotin on a linker: ado-ado).
PTPN3, P26045, sequence (P26045 505-587): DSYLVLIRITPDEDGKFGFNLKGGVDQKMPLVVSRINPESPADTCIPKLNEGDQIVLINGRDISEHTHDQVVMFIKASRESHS
Parameters: key: below the threshold = too weak to quantify, mostly under pKd 3.1 to 4
With EDLTKNHDEL [RCN1, Q15293] the pKd was “below the threshold”.

The binders below were run against SCRIB_1, Q14160 (assay: holdup assay). Details: plain residues with an end cap or a label only (N-terminal biotin on a linker: ado-ado).
SCRIB_1, Q14160, sequence (Q14160 718-814): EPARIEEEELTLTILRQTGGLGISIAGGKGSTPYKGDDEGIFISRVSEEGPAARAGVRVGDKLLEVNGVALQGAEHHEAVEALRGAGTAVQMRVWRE
Parameters: key: below the threshold = too weak to quantify, mostly under pKd 3.1 to 4
EDLTKNHDEL [RCN1, Q15293] showed a pKd of 3.5.

The binders below were run against SCRIB_2, Q14160 (assay: holdup assay). Details: plain residues with an end cap or a label only (N-terminal biotin on a linker: ado-ado).
SCRIB_2, Q14160, sequence (Q14160 857-960): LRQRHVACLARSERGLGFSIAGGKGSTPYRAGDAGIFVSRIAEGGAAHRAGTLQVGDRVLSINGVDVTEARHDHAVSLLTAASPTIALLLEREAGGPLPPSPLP
Parameters: key: below the threshold = too weak to quantify, mostly under pKd 3.1 to 4
EDLTKNHDEL [RCN1, Q15293] showed a pKd of 3.54.

What follows are binders tested against SCRIB_3, Q14160 (assay: holdup assay). Details: plain residues with an end cap or a label only (N-terminal biotin on a linker: ado-ado).
SCRIB_3, Q14160, sequence (Q14160 999-1103): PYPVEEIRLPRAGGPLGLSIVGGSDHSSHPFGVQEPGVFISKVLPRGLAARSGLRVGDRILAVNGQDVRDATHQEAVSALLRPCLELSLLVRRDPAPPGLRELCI
Parameters: key: below the threshold = too weak to quantify, mostly under pKd 3.1 to 4
Work on EDLTKNHDEL [RCN1, Q15293] yielded a pKd of 3.57.

The binders below were run against T8, SHANK1, Q9Y566 (assay: holdup assay). Details: plain residues with an end cap or a label only (N-terminal biotin on a linker: ado-ado).
Parameters: key: below the threshold = too weak to quantify, mostly under pKd 3.1 to 4
For EDLTKNHDEL [RCN1, Q15293], the pKd was “below the threshold”.

These binders were tested against T9, SIPA1L2, Q9P2F8 (assay: holdup assay). Details: plain residues with an end cap or a label only (N-terminal biotin on a linker: ado-ado).
Parameters: key: below the threshold = too weak to quantify, mostly under pKd 3.1 to 4
With EDLTKNHDEL [RCN1, Q15293] the pKd was “below the threshold”.

The binders below were run against T10, SNTG2, Q9NY99 (assay: holdup assay). Details: plain residues with an end cap or a label only (N-terminal biotin on a linker: ado-ado).
Parameters: key: below the threshold = too weak to quantify, mostly under pKd 3.1 to 4
EDLTKNHDEL [RCN1, Q15293] was tested, and the pKd was “below the threshold”.

What follows are binders tested against T11, SYNJ2BP, P57105 (assay: holdup assay). Details: plain residues with an end cap or a label only (N-terminal biotin on a linker: ado-ado).
Parameters: key: below the threshold = too weak to quantify, mostly under pKd 3.1 to 4
For EDLTKNHDEL [RCN1, Q15293], the pKd was “below the threshold”.

What follows are binders tested against T12, TJP3_3, O95049 (assay: holdup assay). Details: plain residues with an end cap or a label only (N-terminal biotin on a linker: ado-ado).
Parameters: key: below the threshold = too weak to quantify, mostly under pKd 3.1 to 4
With EDLTKNHDEL [RCN1, Q15293] the pKd was “below the threshold”.
